The test system of experiment [1] is BMS human breast cancer cells. The experiment in a line: Tumor cell adhesion under stationary conditions. In kind it is cell-based. As to conditions: 200 μM peptide, 30 min at 37° C. On the procedure:
(§1) FIGS. 3A, 3B, 3C, 3D, 3E. scFv Bc-12 and Bc-15 inhibit αvβ3 mediated adhesive breast cancer cell functions. (A) Adhesion of BMS human breast cancer cells to fibrinogen (Fg), vitronectin (VN) or type I collagen (Col I) in the absence or presence of 3 μM Bc-12, Bc-15 or their RGE mutants Mut-12, Mut-15, compared to 200 μM GRGDSPK peptide (SEQ ID NO: 11). Protein coating concentrations: 10 μg/ml (VN, Col I) or 20 μg/ml (Fg). Adhesion time: 30 min at 37° C. (B) Effect of scFvs on haptotactic BMS cell migration toward a fibrinogen substrate (16 hrs at 37° C. in transwell chambers with or without 2 μM Bc-12, Bc-15 or their RGE mutants Mut-12 or Mut-15, compared to 200 μM GRGDSPK peptide) (SEQ ID NO: 11). (C) Effect of scFvs on breast cancer cell arrest during blood flow. Metastatic BMS cells, labeled with hydroethidine, were suspended in human blood (anticoagulated with 50 nM PPACK) and perfused over a collagen I matrix at a venous wall shear rate of 50 s^−1. Under these conditions, breast cancer cells arrest by αvβ3 mediated binding to adherent, thrombus forming platelets. Tumor cell adhesion was quantified by image acquisition at 30 predefined positions during blood flow. Left: representative images of platelet signal (thrombi, green fluorescence) and tumor cell signal (red fluorescence) at identical x,y positions. Right: Number of arrested tumor cells in the presence of 3 μM non-function blocking anti αv scFv Bc-20 or function blocking anti αvβ3 scFvs Bc-12 or Bc-15. (D) scFv Bc-15 is internalized by human breast cancer cells and reduces cell proliferation. Left: confocal images of BMS cells incubated for 4 hrs with FITC-Bc-15 at 4° C. (binding) versus 37° C. (allowing internalization). Right: Phase contrast images of BMS cell cultures 4 days after seeding in the presence of 2 μM RGE containing scFv Mut-15, or RGD containing Bc-15. (E) Effect of scFv Bc-12 on the viability of matrix deprived BMS breast cancer cells in ultra-low-adhesion plates in the presence or absence of 3.7 μM scFv, or 14.36 μM camptothecin as apoptosis inducing control. Measurement of apoptosis was based on cytoplasmic histone-associated DNA fragments after 20 hrs.
Cell adhesion and migration. Tumor cell adhesion under stationary conditions was analyzed as detailed earlier (19). Adhesion buffer was Hanks balanced salt solution (HBSS) pH 7.4, 0.5% BSA, 1 mM MgCl2, 0.2 mM MnCl2. For inhibition, cells were incubated for 5 min at RT either with 3 μM scFv or 200 μM GRGDSPK (SEQ ID NO: 11) peptide, then plated in the presence of inhibitor and allowed to attach for 30 min at 37° C. Haptotactic tumor cell migration toward fibrinogen was analyzed in transwell chambers as detailed earlier. Rolli, M., et al., Proc. Natl. Acad. Sci. U.S.A 100: 9482-9487, 2003. […]

In experiment [2] the test system is BMS human breast cancer cells. The experiment in a line: Haptotactic tumor cell migration toward fibrinogen (transwell). In kind it is cell-based. As to conditions: 200 μM peptide, 16 hrs at 37° C. As for the experimental part:
as §1, with “(E) Effect of scFv Bc-12 on the viability of matrix deprived BMS breast cancer cells in ultra-low-adhesion plates in the presence or absence of 3.7 μM scFv, or 14.36 μM camptothecin as apoptosis inducing control. Measurement of apoptosis was based on cytoplasmic histone-associated DNA fragments after 20 hrs.” left out
Cell adhesion and migration. Tumor cell adhesion under stationary conditions was analyzed as detailed earlier (19). […] Haptotactic tumor cell migration toward fibrinogen was analyzed in transwell chambers as detailed earlier. […]

Experiment [3] deals with integrin αvβ3. Kind of experiment: Flow cytometry, scFv binding to human tumor cell panel. As for the experimental part: FIGS. 1A, 1B, 1C. Patient derived scFvs Bc-12 and Bc-15 recognize tumor cell integrin αvβ3 in a cation and activation dependent manner. Flow cytometric analyses in TBS with or without 1 mM Ca^2+, 1 mM Mg^2+, or 0.2 mM Mn^2+ as indicated. Binding of soluble scFv detected after incubation with anti-Flag M2 murine mAb followed by FITC-anti mouse F(ab′)2. (A) scFv binding to human melanoma cells (M21: αvβ3 plus other αv integrins) (M21-LIIb: αIIbβ3, no αv integrins) or lung adenocarcinoma cells (UCLA-P3: αv integrins, no β3 integrin). (B) scFv binding to M21 melanoma cells. (C) scFv binding to variants of MDA-MB 435 human breast cancer cells that lack (β^3−) or express αvβ3 either in a non-activated (β3WT, ParentCo) or activated form (β3D723R, Bone, Lung, and BMS metastatic cancer cells isolated from breast cancer patient blood).
Flow cytometry. scFv binding to human tumor cells was analyzed by flow cytometry, initially with cloned scFv phage and then with purified scFv protein. Per sample, 2×10^5 tumor cells were blocked with goat serum and incubated either with scFv phage (2-5×10^10) (1 h at RT) followed by mouse anti-M13 mAb (Serotec) (30 min on ice) and goat FITC-anti mouse (Pierce) (30 min on ice), or with purified scFv (1.25 to 40 μg/ml, routinely 10 to 15 μg/ml) (45 min on ice), followed by mouse anti-FLAG mAb M2 (Sigma) (30 min on ice) and goat FITC-anti mouse. Binding/washing buffer was TBS with or without divalent cations (1 mM Ca^2+, 1 mM Mg^2+, 0.2 mM Mn^2+). Alternatively, tumor cells were washed in 10 ml of plasma (prepared freshly from human blood anticoagulated with 50 nM D-Phe-D-Pro-D-arginyl chloromethyl ketone, PPACK, Felding-Habermann et al., J. Biol. Chem. 271: 5892-5900, 1996), resuspended in plasma and then incubated sequentially, without washing, with purified scFv (45 min on ice), followed by anti-FLAG M2 (30 min on ice) and FITC-anti mouse (30 min on ice). All samples were counter stained with propidium iodide (PI) and analyzed on a Becton-Dickinson FACScan, with live gate set to exclude PI positive cells.
To generate therapeutic reagents that specifically react with activated αvβ3, a phage display library of single chain antibody fragments (scFv) was exploited. This library was derived from cancer patient blood lymphocyte cDNA libraries and allowed us to test the hypothesis that the expressed immune repertoire contains antibodies that recognize integrin αvβ3, and distinguish between its activated and non-activated forms. Mao et al., Proc. Natl. Acad. Sci. U.S.A 96: 6953-6958, 1999. A subtractive panning approach was designed based on variants of MDA-MB 435 human breast cancer cells. […] Apparently, these cells are selected during metastasis, as variant cells isolated from lung and bone metastases in immune deficient mice express constitutively activated αvβ3. To establish a cell population that uniformly expresses non-activated αvβ3, MDA-MB 435 parental cells were cloned by limiting dilution, and clones tested for αvβ3 functionality. […] A cell line, MDA-MB 435 Lung-Lung, was established which expressed αvβ3 in a constitutively activated form. This variant stems from a lung metastase of an immune deficient mouse whose mammary fat pad had been injected with parental MDA-MB 435 cells. Felding-Habermann et al., Proc. Natl. Acad. Sci. U.S.A 98: 1853-1858, 2001; Rolli et al., Proc. Natl. Acad. Sci. U.S.A 100: 9482-9487, 2003. To enrich for the ability to colonize the lung from the blood stream, the Lung variant was subsequently injected intravenously, and tumor cells cultured 3 weeks later from the excised lung. Parent Combo cells were used to subtract the scFv phage library to eliminate antibodies against antigens shared by the MDA-MB 435 cell variants. […]
A general note: Flow cytometry measures light scatter and fluorescence of single cells or particles in a stream.

In experiment [4] the test system is BMS breast cancer cells. Kind of experiment: Tumor cell arrest during blood flow. In kind it is cell-based. As to conditions: 3 μM scFv, human blood, collagen I matrix, shear rate 50 s^−1. As for the experimental part:
FIGS. 3A, 3B, 3C, 3D, 3E. scFv Bc-12 and Bc-15 inhibit αvβ3 mediated adhesive breast cancer cell functions. (A) Adhesion of BMS human breast cancer cells to fibrinogen (Fg), vitronectin (VN) or type I collagen (Col I) in the absence or presence of 3 μM Bc-12, Bc-15 or their RGE mutants Mut-12, Mut-15, compared to 200 μM GRGDSPK peptide (SEQ ID NO: 11). Protein coating concentrations: 10 μg/ml (VN, Col I) or 20 μg/ml (Fg). Adhesion time: 30 min at 37° C. (B) Effect of scFvs on haptotactic BMS cell migration toward a fibrinogen substrate (16 hrs at 37° C. in transwell chambers with or without 2 μM Bc-12, Bc-15 or their RGE mutants Mut-12 or Mut-15, compared to 200 μM GRGDSPK peptide) (SEQ ID NO: 11). (C) Effect of scFvs on breast cancer cell arrest during blood flow. Metastatic BMS cells, labeled with hydroethidine, were suspended in human blood (anticoagulated with 50 nM PPACK) and perfused over a collagen I matrix at a venous wall shear rate of 50 s^−1. Under these conditions, breast cancer cells arrest by αvβ3 mediated binding to adherent, thrombus forming platelets. Tumor cell adhesion was quantified by image acquisition at 30 predefined positions during blood flow. Left: representative images of platelet signal (thrombi, green fluorescence) and tumor cell signal (red fluorescence) at identical x,y positions. […]
Tumor cell arrest during bloodflow. Breast cancer cell arrest during blood flow and interaction with platelets was measured as described. […] Adhesive events and cell interactions were visualized and recorded by fluorescence video microscopy and quantified by image acquisition at 30 predefined positions followed by computerized image analysis (MetaMorph, Universal Imaging). Tumor cells were stained with hydroethidine (red fluorescence) (20 μg/ml, 30 min, 37° C.), washed, and mixed with blood containing 10 μM mepacrine (green fluorescence). Blood cells, tumor cells, and platelets acquired green fluorescence and were visualized at 488/515 nm (excitation/emission). Tumor cells were identified by their unique red fluorescence at 543/590 nm. […]

Experiment [5] deals with human melanoma cells. The settings on record: mouse model; cited from earlier work.

For the molecule “GRGDSPK [a fibronectin derived peptide, reference compound]”, the “adhesion to immobilized fibrinogen” value in experiment [1] is on record as “extent of inhibition by 3 μM scFv was similar to that observed with 200 μM GRGDSPK”. Also, the fibrinogen directed migration entry in experiment [2] was “This effect was similar to that seen with 200 μM GRGDSPK”.

B1: Bc-20: non-RGD containing, non-function blocking anti αv scFv (protein)
scFv: MAQVQLVQSGGGLVQPGGSLRLSCAASGFTFSSYWMSWVRQAPGKGLEWVANIKQDGSEKYYVDSVKGRFTISRDNAKNSLYLQMNSLRAEDTAVYYCARDGGFAGWAFDIWGQGTTVTVSSGGGGSGGGGSGGGGSDIQMTQSPSALSASVGDRVTITCRASQGLDNYLAWYQLQPGKAPKLLIYDAFTLQSGVPSRFSGGGSGTDFTLTISSLQPEDFATYFCQQLQSYPLTFGGGTKVEIKRGLGGLVDYKDDD
For the molecule B1, in experiment [3] (M21, M21-LIIb, UCLA-P3 cells, flow cytometry), the “reactivity with human tumor cells that express or lack αvβ3” value was “reacted with αv positive cells, regardless of the associated β subunit”. For the same molecule, the “cation requirement of binding” value in experiment [3] (TBS with or without divalent cations) is “did not require divalent metal cations”. Moreover, in experiment [4], the “breast cancer cell arrest during blood flow” value is reported as “no effect”.

B2: LM609: function blocking antibody against integrin αvβ3 (antibody, V domains shown)
VH: EVQLEESGGGLVKPGGSLKLSCAASGFAFSSYDMSWVRQIPEKRLEWVAKVSSGGGSTYYLDTVQGRFTISRDNAKNTLYLQMSSLNSEDTAMYYCARHNYGSFAYWGQGTLVTVSA
VL: ELVMTQTPATLSVTPGDSVSLSCRASQSISNHLHWYQQKSHESPRLLIKYASQSISGIPSRFSGSGSGTDFTLSINSVETEDFGMYFCQQSNSWPHTFGGGTKLEIKRA
B2: the “metastatic activity of human melanoma cells” value in experiment [5] is listed as “inhibited metastatic activity of human melanoma cells in a mouse model”.

Source of the values: US7271245B2, “Methods and compositions for inhibition of metastasis” (The Scripps Research Institute, priority 2004, dated 2007).
